Experimental data taken from the RNAGym collection of RNA variant scans (doi:10.7554/elife.90254).

B1: OR4K15 (parent)
chain: GUUAACGGUCAUAGGCCAUGGAAACUAGGAGCACCAUUUCGCUGCCAGUGAAGAAAUGAACAAAGAAAAUCUGGGCCAGGCAGGCAUCAAAAGAAAUAGUCUUGCGCUCAACCAGAAAGUCUGUAAUCAUUUUAAGGGUA

Variants of: B1
Assay: self-cleavage, relative activity (ratio to wild type); higher = more cleavage; in vitro, sequencing; the parent is a self-cleaving ribozyme

Variant	self-cleavage
GUUAACGGUCAUAGGCCAUGGAAACUAGGAGCACCAUUUCGCUGCCAGUGAAGAAAUGAACAAAGAAAAUCUGGGCCAGGCAGGCAUCAAAAGAAAUAGCCUUGCGCUCAACCAGAAAGUCUGUAAUCUUUUUAAGGGUA [U100C A129U]	1.49
GUUAACGGUCAUAGGCCAUGGAAACUAGGAGCACCAUUUCGCUGCCAGUGAAGAAAUGAACAAAGAAAAUCUGGGCCAGGCAGGCAUCAAAAGAAAUAGCCUUGCGCUCAACCAGAAAGUCUGUAAUCAUUUUAAGGGUU [U100C A140U]	2.24
GUUAACGGUCAUAGGCCAUGGAAACUAGGAGCACCAUUUCGCUGCCAGUGAAGAAAUGAACAAAGAAAAUCUGGGCCAGGCAGGCAUCAAAAGAAAUAGCCUUGCGCUCAACCAGAAAGUCUGUAAUCAUUUUAAGGGUG [U100C A140G]	2.28
GUUAACGGUCAUAGGCCAUGGAAACUAGGAGCACCAUUUCGCUGCCAGUGAAGAAAUGAACAAAGAAAAUCUGGGCCAGGCAGGCAUCAAAAGAAAUAGACUUGCGCUCAACCAGAAAGUCUGUAAUCAUUUUAAGGGUA [U100A]	0.61
GUUAACGGUCAUAGGCCAUGGAAACUAGGAGCACCAUUUCGCUGCCAGUGAAGAAAUGAACAAAGAAAAUCUGGGCCAGGCAGGCAUCAAAAGAAAUAGCCUUGCGCUCAACCAGAAAGUCUGUAAUCAUUUUAAGGGUA [U100C]	2.09
GUUAACGGUCAUAGGCCAUGGAAACUAGGAGCACCAUUUCGCUGCCAGUGAAGAAAUGAACAAAGAAAAUCUGGGCCAGGCAGGCAUCAAAAGAAAUAGACUUGCGCUCAACCAGAAAGUCUGUAAUCAUUUUAAGGGCA [U100A U139C]	0.83
GUUAACGGUCAUAGGCCAUGGAAACUAGGAGCACCAUUUCGCUGCCAGUGAAGAAAUGAACAAAGAAAAUCUGGGCCAGGCAGGCAUCAAAAGAAAUAGCCUUGCGCUCAACCAGAAAGUCUGUAAUCAUUUUUAGGGUA [U100C A134U]	2.45
GUUAACGGUCAUAGGCCAUGGAAACUAGGAGCACCAUUUCGCUGCCAGUGAAGAAAUGAACAAAGAAAAUCUGGGCCAGGCAGGCAUCAAAAGAAAUAGCCUUGCGCUCAGCCAGAAAGUCUGUAAUCAUUUUAAGGGUA [U100C A111G]	0.01
GUUAACGGUCAUAGGCCAUGGAAACUAGGAGCACCAUUUCGCUGCCAGUGAAGAAAUGAACAAAGAAAAUCUGGGCCAGGCAGGCAUCAAAAGAAAUAGCCCUGCGCUCAACCAGAAAGUCUGUAAUCAUUUUAAGGGUA [U100C U102C]	1.62
GUUAACGGUCAUAGGCCAUGGAAACUAGGAGCACCAUUUCGCUGCCAGUGAAGAAAUGAACAAAGAAAAUCUGGGCCAGGCAGGCAUCAAAAGAAAUAGACUUGCGCUCAACCAGAAAGUCUGUAAUCGUUUUAAGGGUA [U100A A129G]	0.23
GUUAACGGUCAUAGGCCAUGGAAACUAGGAGCACCAUUUCGCUGCCAGUGAAGAAAUGAACAAAGAAAAUCUGGGCCAGGCAGGCAUCAAAAGAAAUAGCCUUGUGCUCAACCAGAAAGUCUGUAAUCAUUUUAAGGGUA [U100C C105U]	0.33
GUUAACGGUCAUAGGCCAUGGAAACUAGGAGCACCAUUUCGCUGCCAGUGAAGAAAUGAACAAAGAAAAUCUGGGCCAGGCAGGCAUCAAAAGAAAUAGACUUGCGCUCAACUAGAAAGUCUGUAAUCAUUUUAAGGGUA [U100A C113U]	0.11
GUUAACGGUCAUAGGCCAUGGAAACUAGGAGCACCAUUUCGCUGCCAGUGAAGAAAUGAACAAAGAAAAUCUGGGCCAGGCAGGCAUCAAAAGAAAUAGCCUUGCGCUCAACCAUAAAGUCUGUAAUCAUUUUAAGGGUA [U100C G115U]	0.71
GUUAACGGUCAUAGGCCAUGGAAACUAGGAGCACCAUUUCGCUGCCAGUGAAGAAAUGAACAAAGAAAAUCUGGGCCAGGCAGGCAUCAAAAGAAAUAAUCUUGCGCUCAACCAGAAAGUCUGUAAUCACUUUAAGGGUA [G99A U130C]	0.13
GUUAACGGUCAUAGGCCAUGGAAACUAGGAGCACCAUUUCGCUGCCAGUGAAGAAAUGAACAAAGAAAAUCUGGGCCAGGCAGGCAUCAAAAGAAAUAGCCUUGCGCUCAACCUGAAAGUCUGUAAUCAUUUUAAGGGUA [U100C A114U]	0.16
GUUAACGGUCAUAGGCCAUGGAAACUAGGAGCACCAUUUCGCUGCCAGUGAAGAAAUGAACAAAGAAAAUCUGGGCCAGGCAGGCAUCAAAAGAAAUAGCCUUGCGCUCAACCGGAAAGUCUGUAAUCAUUUUAAGGGUA [U100C A114G]	1.34
GUUAACGGUCAUAGGCCAUGGAAACUAGGAGCACCAUUUCGCUGCCAGUGAAGAAAUGAACAAAGAAAAUCUGGGCCAGGCAGGCAUCAAAAGAAAUAGACUUGCGCUCAACCAGAAAGUCUGUAAUCAUUUUGAGGGUA [U100A A134G]	0.37
GUUAACGGUCAUAGGCCAUGGAAACUAGGAGCACCAUUUCGCUGCCAGUGAAGAAAUGAACAAAGAAAAUCUGGGCCAGGCAGGCAUCAAAAGAAAUAUUCUUGCGCUCAACCAGAAAGUCUGUAAUCGUUUUAAGGGUA [G99U A129G]	0.13
GUUAACGGUCAUAGGCCAUGGAAACUAGGAGCACCAUUUCGCUGCCAGUGAAGAAAUGAACAAAGAAAAUCUGGGCCAGGCAGGCAUCAAAAGAAAUAGACUUGCGCUCAACCAGAAAGUCUGCAAUCAUUUUAAGGGUA [U100A U124C]	0.18
GUUAACGGUCAUAGGCCAUGGAAACUAGGAGCACCAUUUCGCUGCCAGUGAAGAAAUGAACAAAGAAAAUCUGGGCCAGGCAGGCAUCAAAAGAAAUAGCCUUGCGCUCAACCAGAAAGUCUGUAAUCACUUUAAGGGUA [U100C U130C]	2.02
GUUAACGGUCAUAGGCCAUGGAAACUAGGAGCACCAUUUCGCUGCCAGUGAAGAAAUGAACAAAGAAAAUCUGGGCCAGGCAGGCAUCAAAAGAAAUAGCCUUGCGCUCAACCAGAAAGUCGGUAAUCAUUUUAAGGGUA [U100C U122G]	2.48

Variant	self-cleavage
GUUAACGGUCAUAGGCCAUGGAAACUAGGAGCACCAUUUCGCUGCCAGUGAAGAAAUGAACAAAGAAAAUCUGGGCCAGGCAGGCAUCAAAAGAAAUAGCCUUGCGCUCAACCAGAAAGUCCGUAAUCAUUUUAAGGGUA [U100C U122C]	1.66
GUUAACGGUCAUAGGCCAUGGAAACUAGGAGCACCAUUUCGCUGCCAGUGAAGAAAUGAACAAAGAAAAUCUGGGCCAGGCAGGCAUCAAAAGAAAUAGCCUUGCGCUCAACCAGAAAGUCAGUAAUCAUUUUAAGGGUA [U100C U122A]	2.11
GUUAACGGUCAUAGGCCAUGGAAACUAGGAGCACCAUUUCGCUGCCAGUGAAGAAAUGAACAAAGAAAAUCUGGGCCAGGCAGGCAUCAAAAGAAAUAGCCUUGCGCUCAACCAGAAGGUCUGUAAUCAUUUUAAGGGUA [U100C A118G]	1.11
GUUAACGGUCAUAGGCCAUGGAAACUAGGAGCACCAUUUCGCUGCCAGUGAAGAAAUGAACAAAGAAAAUCUGGGCCAGGCAGGCAUCAAAAGAAAUAGCCUUGCGCUCAACCAGAAUGUCUGUAAUCAUUUUAAGGGUA [U100C A118U]	0.77
GUUAACGGUCAUAGGCCAUGGAAACUAGGAGCACCAUUUCGCUGCCAGUGAAGAAAUGAACAAAGAAAAUCUGGGCCAGGCAGGCAUCAAAAGAAAUAGCCUUGCGCUCAACCAGAAAGUCUGUAAUCAUUUUAAGAGUA [U100C G137A]	2.22
GUUAACGGUCAUAGGCCAUGGAAACUAGGAGCACCAUUUCGCUGCCAGUGAAGAAAUGAACAAAGAAAAUCUGGGCCAGGCAGGCAUCAAAAGAAAUAGCCUUGCGCUCAACCAGCAAGUCUGUAAUCAUUUUAAGGGUA [U100C A116C]	0.97
GUUAACGGUCAUAGGCCAUGGAAACUAGGAGCACCAUUUCGCUGCCAGUGAAGAAAUGAACAAAGAAAAUCUGGGCCAGGCAGGCAUCAAAAGAAAUAGCCUUGCGCUCAACCAGGAAGUCUGUAAUCAUUUUAAGGGUA [U100C A116G]	1.32
GUUAACGGUCAUAGGCCAUGGAAACUAGGAGCACCAUUUCGCUGCCAGUGAAGAAAUGAACAAAGAAAAUCUGGGCCAGGCAGGCAUCAAAAGAAAUAGCCUUGCGCUCAACCAGAAAGUCUUUAAUCAUUUUAAGGGUA [U100C G123U]	2.81
GUUAACGGUCAUAGGCCAUGGAAACUAGGAGCACCAUUUCGCUGCCAGUGAAGAAAUGAACAAAGAAAAUCUGGGCCAGGCAGGCAUCAAAAGAAAUAGCCUUGCGCUCAACCAGAAAGUCUAUAAUCAUUUUAAGGGUA [U100C G123A]	2.36
GUUAACGGUCAUAGGCCAUGGAAACUAGGAGCACCAUUUCGCUGCCAGUGAAGAAAUGAACAAAGAAAAUCUGGGCCAGGCAGGCAUCAAAAGAAAUAGCCUUGCGCUCAACCAGAAAGUCUGUAGUCAUUUUAAGGGUA [U100C A126G]	1.86
GUUAACGGUCAUAGGCCAUGGAAACUAGGAGCACCAUUUCGCUGCCAGUGAAGAAAUGAACAAAGAAAAUCUGGGCCAGGCAGGCAUCAAAAGAAAUAGCCUUGCGCUCAACCAGAAAGUCUGUAACCAUUUUAAGGGUA [U100C U127C]	1.61
GUUAACGGUCAUAGGCCAUGGAAACUAGGAGCACCAUUUCGCUGCCAGUGAAGAAAUGAACAAAGAAAAUCUGGGCCAGGCAGGCAUCAAAAGAAAUAGCCUUGCGCUUAACCAGAAAGUCUGUAAUCAUUUUAAGGGUA [U100C C109U]	0.89
GUUAACGGUCAUAGGCCAUGGAAACUAGGAGCACCAUUUCGCUGCCAGUGAAGAAAUGAACAAAGAAAAUCUGGGCCAGGCAGGCAUCAAAAGAAAUAGCCUUGCGCUCAACCAGAAAGCCUGUAAUCAUUUUAAGGGUA [U100C U120C]	2.65
GUUAACGGUCAUAGGCCAUGGAAACUAGGAGCACCAUUUCGCUGCCAGUGAAGAAAUGAACAAAGAAAAUCUGGGCCAGGCAGGCAUCAAAAGAAAUAGCCUUGCGCCCAACCAGAAAGUCUGUAAUCAUUUUAAGGGUA [U100C U108C]	0.01
GUUAACGGUCAUAGGCCAUGGAAACUAGGAGCACCAUUUCGCUGCCAGUGAAGAAAUGAACAAAGAAAAUCUGGGCCAGGCAGGCAUCAAAAGAAAUAAUCUUGCGCUCAACCAGAAAGUCUGUAAUCAUCUUAAGGGUA [G99A U131C]	0.42
GUUAACGGUCAUAGGCCAUGGAAACUAGGAGCACCAUUUCGCUGCCAGUGAAGAAAUGAACAAAGAAAAUCUGGGCCAGGCAGGCAUCAAAAGAAAUAGACUUGCGCUCAACCAGAAAGUCUGUAAUCAUCUUAAGGGUA [U100A U131C]	0.36
GUUAACGGUCAUAGGCCAUGGAAACUAGGAGCACCAUUUCGCUGCCAGUGAAGAAAUGAACAAAGAAAAUCUGGGCCAGGCAGGCAUCAAAAGAAAUAGCCUUGCGGUCAACCAGAAAGUCUGUAAUCAUUUUAAGGGUA [U100C C107G]	0.01
GUUAACGGUCAUAGGCCAUGGAAACUAGGAGCACCAUUUCGCUGCCAGUGAAGAAAUGAACAAAGAAAAUCUGGGCCAGGCAGGCAUCAAAAGAAAUAAUCUUGCGCUCAACCAGAAAGUCUGUAAUCAUUAUAAGGGUA [G99A U132A]	0.23
GUUAACGGUCAUAGGCCAUGGAAACUAGGAGCACCAUUUCGCUGCCAGUGAAGAAAUGAACAAAGAAAAUCUGGGCCAGGCAGGCAUCAAAAGAAAUAGCCUUGCGCUCGACCAGAAAGUCUGUAAUCAUUUUAAGGGUA [U100C A110G]	0.32
GUUAACGGUCAUAGGCCAUGGAAACUAGGAGCACCAUUUCGCUGCCAGUGAAGAAAUGAACAAAGAAAAUCUGGGCCAGGCAGGCAUCAAAAGAAAUAGCCUUGCGCUCCACCAGAAAGUCUGUAAUCAUUUUAAGGGUA [U100C A110C]	1.12
